Laboratory results from patent US20200199559A1.
Read-outs that look alike come from different tables or passages of the source. Values belong to the molecule of their own block, whether it stands above or below them.

Tests used:
[1] = biological target: wild type Penicillium oxalicum glucoamylase (Penicillium oxalicum); assay: cell-based or functional assay
[2] = biological target: Glucoamylase PE001: variant of the Penicillium oxalicum glucoamylase having a K79V substitution (Penicillium oxalicum); assay: cell-based or functional assay
[3] = tested on: T1, wild type Penicillium oxalicum glucoamylase
T1 sequence: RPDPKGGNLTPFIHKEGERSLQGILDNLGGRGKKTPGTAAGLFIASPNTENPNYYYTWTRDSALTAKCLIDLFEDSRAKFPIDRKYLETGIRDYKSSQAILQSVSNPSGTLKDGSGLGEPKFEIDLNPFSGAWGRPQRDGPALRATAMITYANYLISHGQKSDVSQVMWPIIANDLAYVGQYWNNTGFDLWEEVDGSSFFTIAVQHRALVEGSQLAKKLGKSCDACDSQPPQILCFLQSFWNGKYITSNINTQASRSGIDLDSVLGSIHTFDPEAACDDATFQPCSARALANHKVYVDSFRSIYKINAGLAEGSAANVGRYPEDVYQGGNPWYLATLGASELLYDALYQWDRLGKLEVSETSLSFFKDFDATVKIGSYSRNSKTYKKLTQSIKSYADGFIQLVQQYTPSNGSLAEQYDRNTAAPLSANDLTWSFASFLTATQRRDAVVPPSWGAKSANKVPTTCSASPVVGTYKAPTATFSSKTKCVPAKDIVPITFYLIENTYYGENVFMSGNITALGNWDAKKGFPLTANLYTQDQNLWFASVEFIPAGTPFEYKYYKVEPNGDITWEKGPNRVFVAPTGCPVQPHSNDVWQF

[4] = biological target: T2, wild type Penicillium oxalicum glucoamylase
T2 chain: T1 sequence

intact glucoamylase (ca. 70 kDa), SDS-PAGE after protease treatment overnight at 4° C. [1]: 100%
intact glucoamylase (ca. 70 kDa), SDS-PAGE after protease treatment overnight at 32° C. [1]: 90%
intact glucoamylase (ca. 70 kDa), SDS-PAGE after protease treatment overnight at 4° C. [2]: 100%
intact glucoamylase (ca. 70 kDa), SDS-PAGE after protease treatment overnight at 32° C. [2]: 100%
Molecule: aspergillopepsin I (enzyme)

Molecule: aspergillopepsin I
cleaved glucoamylase (ca. 60 kDa), SDS-PAGE after protease treatment overnight at 32° C. [3]: 10%

intact glucoamylase (ca. 70 kDa), SDS-PAGE after protease treatment overnight at 4° C. [1]: 40%
intact glucoamylase (ca. 70 kDa), SDS-PAGE after protease treatment overnight at 32° C. [1]: 10%
intact glucoamylase (ca. 70 kDa), SDS-PAGE after protease treatment overnight at 4° C. [2]: 100%
intact glucoamylase (ca. 70 kDa), SDS-PAGE after protease treatment overnight at 32° C. [2]: 100%
B1: aorsin (protein)
chain: GLNVTNCDQLITPECIRALYKIPSARAAPHPNNSLGIFEEGDYYAQEDLDLFFKTFAKDIPQGTHPIPAFIDGAEAPVPVTKAGGESDLDFELAYPIVHPQSITLYQTDDANWASNTTGFLNTFLDALDGSYCTYCAYGECGNDPSLDPVYPDDAGYDGQLMCGVFKPTNVISVSYGEQENDLPANYQQRQCMEFLKLGLQGVSVLFASGDNGVAGPPGDGNSVNGCLNNGTVFSPAFPNSCPYITNVGATKVYPGYTVSQPESAVYDPDGLYSYASGGGFSNIYPIPDYQAEAVATYFKDHNPPYPYYEGAENLGKNGGLYNRLGRGYPDVAANGDNIAVFNGGEFGSSGGTSASTPIFASIINRIIDERLAVGKGPVGFINPVLYKNPSVLNDITNGTNPGCGTDGFSTAPGWDPATGLGTPNYPKMLKLWLDLP
cleaved glucoamylase (ca. 60 kDa), SDS-PAGE after protease treatment overnight at 4° C. [4]: 60%
cleaved glucoamylase (ca. 60 kDa), SDS-PAGE after protease treatment overnight at 32° C. [4]: 90%
